Experimental data published in patent publication US20210032365A1 (Chugai, published 2021).
Changes are numbered by the printed parent chain.

Assays:
[1] = biological target: T1, human C1s (human, UniProt P09871 16-688); experiment: SPR; KD pH 5.8 1.2 mM Ca / KD pH 7.4 1.2 mM Ca
T1 construct: also called hC1s; serum-derived human C1s (CompTech)
T1 sequence: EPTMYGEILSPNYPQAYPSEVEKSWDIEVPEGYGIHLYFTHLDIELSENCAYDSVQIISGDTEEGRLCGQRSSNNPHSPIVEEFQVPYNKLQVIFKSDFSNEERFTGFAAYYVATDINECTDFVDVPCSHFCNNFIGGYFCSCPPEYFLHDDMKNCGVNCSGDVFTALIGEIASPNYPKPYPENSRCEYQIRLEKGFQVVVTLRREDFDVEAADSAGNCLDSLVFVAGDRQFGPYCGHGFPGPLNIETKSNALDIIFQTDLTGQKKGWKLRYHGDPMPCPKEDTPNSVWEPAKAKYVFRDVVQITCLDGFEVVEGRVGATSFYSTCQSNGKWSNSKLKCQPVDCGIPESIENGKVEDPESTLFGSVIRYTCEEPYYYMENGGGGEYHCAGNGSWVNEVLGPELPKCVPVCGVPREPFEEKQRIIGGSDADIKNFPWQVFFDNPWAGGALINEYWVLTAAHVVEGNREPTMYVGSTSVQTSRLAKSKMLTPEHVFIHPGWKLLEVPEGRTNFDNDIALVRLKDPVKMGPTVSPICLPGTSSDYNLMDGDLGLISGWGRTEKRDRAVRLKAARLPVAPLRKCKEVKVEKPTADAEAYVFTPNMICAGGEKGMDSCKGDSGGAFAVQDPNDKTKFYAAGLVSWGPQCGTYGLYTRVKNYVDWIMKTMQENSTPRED
Description: (§1) All variants were transiently expressed and purified by the method described above. The binding affinity of each histidine-substituted variant at pH 7.4 and pH 5.8 was determined at 37 degrees C. using Biacore T200 instrument (GE Healthcare). Recombinant Protein A/G (Pierce) was immobilized onto all flow cells of a CM4 sensor chip using an amine coupling kit (GE Healthcare). Antibodies and analytes were prepared in 7(+) buffer (20 mM ACES, 150 mM NaCl, 1.2 mM CaCl2, 0.05% Tween 20, 0.005% NaN3, pH 7.4), 5(+) buffer (20 mM ACES, 150 mM NaCl, 1.2 mM CaCl2, 0.05% Tween 20, 0.005% NaN3, pH 5.8), or 5(−) buffer (20 mM ACES, 150 mM NaCl, 3 micro M CaCl2, 0.05% Tween 20, 0.005% NaN3, pH 5.8). Each antibody was captured onto the sensor surface by protein A/G. Antibody capture levels were aimed at 200 resonance unit (RU). Serum-derived human C1s (CompTech) or recombinant C1s prepared in EXAMPLE 1 was injected at 50 nM, followed by dissociation. The sensor surface was regenerated in each cycle with 10 mM Glycine-HCl, pH 1.5. […] The ratio of KD 5.8+ to KD 7.4+(“KD 5+/7+”) and that of KD 5.8− to KD 7.4+(“KD 5−/7+”) were calculated. When the KD 5+/7+ or KD 5−/7+ of a variant is larger than that of the parent antibody IPN009VH2-SG4GK/IPN009VK3-SK1, that variant is considered to be “pH”- or “pH and Ca”-dependent, respectively. When binding response in 5(+) buffer and/or in 5(−) buffer of a variant is much lower than that of IPN09VH2/IPN009VK3, that variant is also considered as “pH”- and/or “pH and Ca”-dependent. Therefore, such mutations are effective to generate “pH”- and/or “pH and Ca”-dependent antibody. To further enhance “pH” and/or “pH and Ca” dependency, a combination of histidine mutations was conducted. Antibodies with combinations of histidine mutations were evaluated using Biacore by the method described above.

[2] = biological target: T1, human C1s; experiment: SPR, Ab captured; pH 5.8, 3 uM Ca
Description: as §1

[3] = biological target: T1, human C1s; experiment: SPR, Ab captured; pH 5.8, 1.2 mM Ca
Description: as §1

[4] = biological target: T1, human C1s; experiment: SPR, Ab captured; pH 7.4, 1.2 mM Ca
Description: as §1

[5] = biological target: T1, human C1s; experiment: SPR; KD pH 5.8 3 uM Ca / KD pH 7.4 1.2 mM Ca
Description: as §1

[6] = biological target: T2, human C1s (human, UniProt P09871 16-688); experiment: SPR; KD at pH 5.8 over KD at pH 7.4, both 1.2 mM Ca
T2 construct: Analyte in the Biacore assays; also called hC1s; serum-derived human C1s (CompTech)
T2 sequence: T1 sequence
Description: (§2) The binding affinity of all histidine-substituted variants at pH 7.4 and pH 5.8 were determined at 37 degrees C. using Biacore T200 instrument (GE Healthcare). Recombinant Protein A/G (Pierce) was immobilized onto all flow cells of a CM4 sensor chip using amine coupling kit (GE Healthcare). Antibodies and analytes were prepared in 7(+) buffer (20 mM ACES, 150 mM NaCl, 1.2 mM CaCl2, 0.05% Tween 20, 0.005% NaN3, pH 7.4) or 5(+) buffer (20 mM ACES, 150 mM NaCl, 1.2 mM CaCl2), 0.05% Tween 20, 0.005% NaN3, pH 5.8). Each antibody was captured onto the sensor surface by protein A/G. Antibody capture levels were aimed at 200 resonance unit (RU). […] Sensor surface was regenerated each cycle with 10 mM Glycine-HCl pH 1.5. […] An additional dissociation phase at pH 5.8 was integrated immediately after the dissociation phase at pH 7.4. This dissociation rate in 5(+) buffer was determined by processing and fitting data using Scrubber 2.0 (BioLogic Software) curve fitting software. […]

[7] = biological target: T2, human C1s; experiment: SPR; koff (5.8+ of 775+): extra dissociation phase at pH 5.8 (1.2 mM Ca) right after the pH 7.4 dissociation, Scrubber fit
Description: (§3) The binding affinity of all histidine-substituted variants at pH 7.4 and pH 5.8 were determined at 37 degrees C. using Biacore T200 instrument (GE Healthcare). Recombinant Protein A/G (Pierce) was immobilized onto all flow cells of a CM4 sensor chip using amine coupling kit (GE Healthcare). Antibodies and analytes were prepared in 7(+) buffer (20 mM ACES, 150 mM NaCl, 1.2 mM CaCl2, 0.05% Tween 20, 0.005% NaN3, pH 7.4) or 5(+) buffer (20 mM ACES, 150 mM NaCl, 1.2 mM CaCl2), 0.05% Tween 20, 0.005% NaN3, pH 5.8). Each antibody was captured onto the sensor surface by protein A/G. Antibody capture levels were aimed at 200 resonance unit (RU). […] Sensor surface was regenerated each cycle with 10 mM Glycine-HCl pH 1.5. […] An additional dissociation phase at pH 5.8 was integrated immediately after the dissociation phase at pH 7.4. This dissociation rate in 5(+) buffer was determined by processing and fitting data using Scrubber 2.0 (BioLogic Software) curve fitting software.

[8] = biological target: T2, human C1s; experiment: SPR (Biacore T200, 37C), Ab captured on protein A/G, serum C1s 12.5 and 50 nM; pH 7.4, 1.2 mM Ca
Description: as §3

[9] = biological target: T3, Serum-derived human C1s (human, UniProt P09871 16-688); experiment: SPR Biacore T200, 37 C, antibody captured on protein A/G, pH 5.8, 1.2 mM CaCl2
T3 construct: The analyte was C1s purified from serum; also called hC1s
T3 sequence: T1 sequence
Description: as §3

[10] = biological target: T3, Serum-derived human C1s; experiment: SPR Biacore T200, 37 C, ratio of KD pH 5.8 / pH 7.4, 1.2 mM CaCl2
Description: as §2

[11] = biological target: T3, Serum-derived human C1s; experiment: SPR Biacore T200, 37 C, antibody captured on protein A/G, pH 7.4, 1.2 mM CaCl2
Description: as §3

[12] = biological target: T3, Serum-derived human C1s; experiment: SPR Biacore T200, 37 C, ratio of dissociation rates pH 5.8 / pH 7.4, 1.2 mM CaCl2
Description: as §3

B1: C1_IPN009VH2-SG4GK/IPN93L0021-SK1 (antibody, human IgG4 S228P, kappa, name in Kabat numbering)
heavy: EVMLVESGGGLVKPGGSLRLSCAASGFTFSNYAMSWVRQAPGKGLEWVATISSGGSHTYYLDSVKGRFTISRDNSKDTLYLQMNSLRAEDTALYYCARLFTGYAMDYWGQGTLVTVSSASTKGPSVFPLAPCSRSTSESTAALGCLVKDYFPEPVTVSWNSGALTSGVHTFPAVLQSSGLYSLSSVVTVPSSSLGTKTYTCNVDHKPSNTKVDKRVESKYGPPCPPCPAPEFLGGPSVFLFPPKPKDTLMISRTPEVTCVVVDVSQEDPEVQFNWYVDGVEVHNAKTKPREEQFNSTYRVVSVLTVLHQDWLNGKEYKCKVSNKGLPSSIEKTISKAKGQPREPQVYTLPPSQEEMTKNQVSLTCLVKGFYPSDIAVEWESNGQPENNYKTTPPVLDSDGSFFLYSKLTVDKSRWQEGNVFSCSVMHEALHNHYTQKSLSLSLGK
light: QIVLTQSPATLSLSPGERATLSCTASSSVSSSYLHWYQQKPGKAPKLWIYSTSNLASGVPSRFSGSGSGTDYTLTISSLQPEDFATYYCHQYHRLPPITFGQGTKLEIKRTVAAPSVFIFPPSDEQLKSGTASVVCLLNNFYPREAKVQWKVDNALQSGNSQESVTEQDSKDSTYSLSSTLTLSKADYEKHKVYACEVTHQGLSSPVTKSFNRGEC
notes: also called IPN009VH2/IPN93L0021
KD 5(+)/7(+) [1]: 1.2 | Kd [2]: 9.54 nM | koff [2]: > 0.1 s⁻¹ | Kd [3]: 3.21 nM | koff [3]: 0.00203 s⁻¹ | kon [3]: 632000 M⁻¹ s⁻¹ | Kd [4]: 2.68 nM | koff [4]: 0.000898 s⁻¹ | kon [4]: 335000 M⁻¹ s⁻¹ | KD 5(-)/7(+) [5]: 3.6

B2: IPN009VH2/IPN009VK3-SG136 (antibody, human IgG1, kappa)
heavy: EVMLVESGGGLVKPGGSLRLSCAASGFTFSNYAMSWVRQAPGKGLEWVATISSGGSHTYYLDSVKGRFTISRDNSKDTLYLQMNSLRAEDTALYYCARLFTGYAMDYWGQGTLVTVSSASTKGPSVFPLAPSSKSTSGGTAALGCLVKDYFPEPVTVSWNSGALTSGVHTFPAVLQSSGLYSLSSVVTVPSSSLGTQTYICNVNHKPSNTKVDKKVEPKSCDKTHTCPPCPAPELRRGPSVFLFPPKPKDTLMISRTPEVTCVVVDVSHEDPEVKFNWYVDGVEVHNAKTKPREEQYNSTYRVVSVLTVLHQDWLNGKEYKCKVSNKGLPSSIEKTISKAKGQPREPQVYTLPPSREEMTKNQVSLTCLVKGFYPSDIAVEWESNGQPENNYKTTPPVLDSDGSFFLYSKLTVDKSRWQQGNVFSCSVMHEALHNHYTQKSLSLSP
light: B1 light with H93Y, S173C
notes: also called IPN009VH2/IPN009VK3 (lot PPU2040)
KD (5.8+)/KD (7.4+) [6]: 0.4 | koff [7]: 8.86e-05 s⁻¹ | koff [8]: 0.000411 s⁻¹

B3: IPN92H0288/IPN93L0211-SG136 (antibody, human IgG1, kappa)
heavy: B2 heavy with Y60E, K65D, G102K, Y103H
light: B1 light with S28E, S31E, H93Y, P96H, S173C
koff [9]: 0.0194 s⁻¹ | kon [9]: 233000 M⁻¹ s⁻¹ | KD (5.8+)/KD (7.4+) [10]: 74.9 | kon [11]: 469000 M⁻¹ s⁻¹ | koff (5.8+ of 775+)/koff (7.4+) [12]: 54.2

B4: IPN009VH2/IPN93L0024-SG136 (antibody, human IgG1, kappa)
heavy: B2 heavy
light: B1 light with H93Y, P96H, S173C
notes: also called IPN009VH2/IPN93L0024 (lot PPU2044)
KD (5.8+)/KD (7.4+) [6]: 1.3 | koff [7]: 0.000741 s⁻¹ | koff [8]: 0.000612 s⁻¹

B5: IPN92H0288/IPN93L0211-SG136 (antibody, human IgG1, kappa)
heavy: B2 heavy with Y60E, K65D, G102K, Y103H
light: B1 light with S28E, S31E, H93Y, P96H, S173C
notes: also called IPN92H0288/IPN93L0211 (lot PPU2049)
KD (5.8+)/KD (7.4+) [6]: 74.9 | koff [7]: 0.0282 s⁻¹ | koff [8]: 0.00052 s⁻¹

B6: IPN92H0307/IPN93L0058-SG136 (antibody, human IgG1, kappa)
heavy: B2 heavy with T28E, S30E, Y60E, K65D, G102K, Y103H
light: B1 light with S28E, H93Y, P96H, S173C
notes: also called IPN92H0307/IPN93L0058 (lot PPU2051)
KD (5.8+)/KD (7.4+) [6]: 28.4 | koff [7]: 0.0151 s⁻¹ | koff [8]: 0.000523 s⁻¹

B7: IPN009VH2/IPN93L0021-SG136 (antibody, human IgG1, kappa, name in Kabat numbering)
heavy: B2 heavy
light: B1 light with S173C
notes: also called IPN009VH2/IPN93L0021 (lot PPU2042)
KD (5.8+)/KD (7.4+) [6]: 1.5 | koff [7]: 0.0011 s⁻¹ | koff [8]: 0.00058 s⁻¹

B8: IPN92H0288/IPN93L0058-SG136 (antibody, human IgG1, kappa)
heavy: B2 heavy with Y60E, K65D, G102K, Y103H
light: B1 light with S28E, H93Y, P96H, S173C
notes: also called IPN92H0288/IPN93L0058 (lot PPU2050)
KD (5.8+)/KD (7.4+) [6]: 65.6 | koff [7]: 0.0158 s⁻¹ | koff [8]: 0.000408 s⁻¹

B9: IPN92H0033/IPN93L0024-SG136 (antibody, human IgG1, kappa)
heavy: B2 heavy with Y103H
light: B1 light with H93Y, P96H, S173C
notes: also called IPN92H0033/IPN93L0024 (lot PPU2046)
KD (5.8+)/KD (7.4+) [6]: 4.7 | koff [7]: 0.0029 s⁻¹ | koff [8]: 0.000571 s⁻¹

B10: IPN92H0288/IPN93L0058-SG136 (antibody, human IgG1, kappa)
heavy: B2 heavy with Y60E, K65D, G102K, Y103H
light: B1 light with S28E, H93Y, P96H, S173C
koff [9]: 0.0127 s⁻¹ | kon [9]: 315000 M⁻¹ s⁻¹ | KD (5.8+)/KD (7.4+) [10]: 65.6 | kon [11]: 666000 M⁻¹ s⁻¹ | koff (5.8+ of 775+)/koff (7.4+) [12]: 38.8

B11: IPN92H0307/IPN93L0058-SG136 (antibody, human IgG1, kappa)
heavy: B2 heavy with T28E, S30E, Y60E, K65D, G102K, Y103H
light: B1 light with S28E, H93Y, P96H, S173C
koff [9]: 0.0121 s⁻¹ | kon [9]: 318000 M⁻¹ s⁻¹ | KD (5.8+)/KD (7.4+) [10]: 28.4 | kon [11]: 391000 M⁻¹ s⁻¹ | koff (5.8+ of 775+)/koff (7.4+) [12]: 28.8

B12: IPN92H0033/IPN009VK3-SG136 (antibody, human IgG1, kappa)
heavy: B2 heavy with Y103H
light: B1 light with H93Y, S173C
notes: also called IPN92H0033/IPN009VK3 (lot PPU2041)
KD (5.8+)/KD (7.4+) [6]: 0.9 | koff [7]: 0.000265 s⁻¹ | koff [8]: 0.00038 s⁻¹
